Assay: soluble on expression in E. coli; label from the status in PepcDB or PDB records

Sequence | soluble on expression in E. coli
MVYVIGMGARGREGLSLKALRRLEEAEVLIGGRRHLAHFPDHPGEKVPVQGPLEALLDLAEARLKEGKKVAFLASGDPLFYGIGKRVLERFPEAEVHPAPTAFQEAFARLKLPWDQARFFSLHGRPLGGVLLELSLSPLSVVYTDPEHTPAGIARALLEMGVDARAHVAERLGEEDERVRSFAGLKEVAEERFLDPNVLILEAKGPLPPRLGFFPDEAFEQRMPKKGLITKREVRLLALGLLGLPPDGVLWDIGAGTGSVGIEAARLAPWGEVYAVEKNPESWPHIVENARRFGAFNLHLVKGEAPEALKGLPAPHAVFVGGSGGELEEILRVSLKALRPGGRLVVAAITLENLLAAYGFLKGTGLPLEGFQVQASRVVPLARYHRLEAQNPITLLAVTKEGA | soluble
MIPSVSPQQDALTGQPLRVVERDGVHYTLLGTAHISQASVAAVKQEVESGCYDAIAVELDAQRLQALCDPDTLAKLDLIQVIRKGQLALFAANLALAAYQRRLAKQLGIEPGAELKTAVTMARERDLPVHLIDREVGLTFKRASAKLGFLGKMKLGGGLIAGLFAADEVGEEEIEKLKQGDMLEASFGDFANESPELYQTIIAERDRYMATRLREEVNSATPKVLVVVGAGHLTGLAKHLENDTEPPTELRALLEKVQQKKR | not soluble
MKHQHQHQHQHQHQMHQTEDYCLASNKVGRCRGSFPRWYYDPTEQICKSFVYGGCLGNKNNYLREEECILACRGV | soluble
MMLSSNSFSLNLSNEDYIWPLEEDQEETTDSSGPMMLSPPLPEGACFNFEDRNTVYVHSRRPEDTPKSFELYSIPEDLALDSPFPSCEQTTFFTTKPDKSFLLDIKNSSPLNIGRMQNSRS | soluble
MDVTNDDYIRLLSALLPPGPVWSASDPAIAGAAPSLTRVHQRADALMRELDPRTTTELINRWERLCGLPDECIPAGTQTLRQRQQRLDAKVNLAGGINEDFYLAQLAALGRPDATITRYDKSTFTCSSACTDAVNAPEWRYYWQVNMPATTNSTWMTCGDPCDSALRIWGDTVVECVLNKLCPSHTYVIFKYPE | soluble
MSLNLTTTVLSLQLEQPFVSNKGSTTTVHQVVIKLTWQEYGGFGTVLCPKETQLSVEQIQQLIQACEPLLSTATPWQFELYQGQLASVVRNQAAMMAGIDMAWHDLLGKVVAQPIHALWGLAGLSIPPTALSLGAQSEQALVAQAAKLAAWPILKLKLTTDSNLDSLRQLREVYAGRIWVDGNGAWDVDQAIAAAQQCHTYGVELIEQPIPAGNLDQLRTIRQHSPIPIVADEDCRGLADVLRLHTCVDVINLKLFKCGGLRQARTMIDVAKQFGLKVMLGCKTESSLGISAIAQLAGLADYLDLDGHLDLVNDPFQGLVIEQGTLRLPQTPGLGLTIQGAIEEGHHHHHH | not soluble
TRGAKDTVMIVNAQGGMEPREVTVAQQQGTNWIVTSGLKDGDKVVVEGISIAGITGAKKVTPKEWASSENQAAAPQSGVQTASEAKPASEAK | not soluble
KGTVCVTNLSTGSKRLGAIAPNSTMLAVRNSADCLLALQQNHADAVISDDAILSGMIAQDPFTHIVGDPIATEQYAVAFAKPRTGRDTAPMIRQVNSTFERIFRDGTWTRTYNHWFGAYLAPQVHPAVHYREER | not soluble
MNVVLVGTDPNGLTDALEAEGHTVMVADVGNRPGLEEAGIHEADVYLLTEMSQATSIAVAKDLNPDLRVVVYAEGSLPDFASRQTDLVVDPDLLGSDAVAEEL | not soluble
MGHHHHHHSHVAVQTASKQVDGDYVVSEWSEIIEFCTADYSKVHLTQLLEKAEVIAGRMLKFSVFYRNQHKEYFDYVREHHGNAMQPSVKDNSGSHGSPISGKLEGIFFSCSTEFNTGKPPQDSPYGRYRFEIAAEKLFNPNTNLYFGDFYCMYTAYHYVILVIAPVGSPGDEFCKQRLPQLNSKDNKFLTCTEEDGVLVYHHAQDVILEVIYTDPVDLSLGTVAEITGHQLMSLSTANAKKDPSCKTCNISVGR | not soluble
MSLALSTEQKTKMWAMLNQTRGQIGLTAYKDYIFGILFYKYLSEKATHWLNGVLRGENWENVYSQDSVKALNYMKKNLGYAIQPNEFFVDWKKAIDTDRFNIGMMTDTFTHFNQQIAFEAKNDFEGIFDGMRFDSADLGANAQARASVMISMIELLSSPEFDLSGSNDTVSDIYEYLVAQFATVLASDMGQYYTPKEISNVMARILTFGREDMEKFSIFDPTVGSGSLLLTTASYMKNSGRRGVIKYYGQEKDATPYRLSRMNLMMHGIEYNDININHADTLESDWPDGVVDGKDTPRMFDAVMANPPYSAHWNNKDREDDPRWREYGVSPKTKADYAFLLHCLYHLEDNGRMAIILPHGVLFRGASEGRIRKALIDKHQIEAIIGFPDKLFLNTSIPVCVVILRKNRIESDILFVDASKGFEKIKKQNNLRSEDVEKIVDTVINRKEIEKYSHVATLDEIKENDYNLNIPRYVDTFEEEEAIDLVALGNEMVTLNADIKKAETDFLGLLDELAVTPDTKEIIEATKAVFREGHHHHHH | soluble
MAHHHHHHMRFFKSDGTPYNSDMTDTLHGSEYVHRGGVEAIVEGVAAGQYAEHKPRAIMFVNKRPVEIIPQEENLLEVLEREGIRVPKFCYHPILSVAGNCRMCLVQVDGTQNLVVSCATVALPGMSIITDSRLVRDAREGNVELILINHPNDCPICEQATNCDLQNISMNYGTDIPRYKEDKRAVQDFYFDPQTRVVLNRCIHCTRCVRFLNEHAQDFNLGMIGRGGLSEISTFLDELEVKTDNNMPVSQLCPVGKLYLGDADENNAVADELDASEQAYAVATS | soluble
MGSDKIHHHHHHMRAIFFNGDLQYTTDYPDPVRQPGEALIRPHLVGICNTDLEITRGYMNFRGVLGHEFVGTVVASDDPSWQGKRVVGEINAACRRCPTCLRGDVSHCPQRTTLGIYRRDGAMADLFTLPEACLHEVPASVSDEAAVFTEPLAAALEIVEQSHIRPTERVAVVGDGKLGAMIVQVLRLTGCELTLIGRHPERWDVYRQQGITCVRSTDLPGTLFDVVVDCTGNPSGLNIARQIIRPRGRLILKSTFAAETQLNLSMVVVDEIQLIGSRCGPFAPALRLLERGLIATTPLISARYPLAEGLQAFAAAPGQLKVLLSV | not soluble
MDQIRQLAQWIKEANTIAVLTGAGMSTESGIPDFRSENGLYAQEDNVEYYLSEYYYKKDPVDFWRRFKRMFSLKMMGGFAPNDGHRFLRWLEEMGKTVTILTQNIDGLHTKAGSTNVIELHGTLQTATCPSCGNKYDLSFINRHEVPRCEKCQTIVKPDVVLFGGLVPRMEEAFAAAAASDLLLAMGTSLEVAPVNQIPFYVAAESPATRKVLINKTATRMDGMFDLVIYGGIGKTVASVRKQIQAE | soluble
MSLAPINPYPLLQACQRQRVSDGAIAPVLAGTESSDRLLVLIWPQLGDFDSLEYAQWLQREQDQIQQLGLTIRAVGIGDRDSGQRFCEFTGFPADQLFVDPTASLHQELELYPGLQLSIPGFSPAAKAWLNLLLMCAGIGSPGTLAEVLRGYRGDRSAPQLIAAEETVQAAPLPPIKGNFFNLAGGSGFQRPMELATLRLRNMAESLGHWRTYVPDTSYMTQRGGTFLFDRDRQLIYEHRDHGILGFSATMNRPLSFLDNLPTPSTASEGHHHHHH | soluble
METIVQKFGGTSVGSVERIQHVANLIIEEYERGHSIVSVVSAMGKSTDELVALANAITENPSKREMDMLLSTGEQVTISLLTMALQAKGYHAISLTGWQAGITTESVHSSARITDIHTDRIQSYLAEGTIVIVAGFQGVSEDFEITTLGRGGSDTTAVALAAALKAKKCDIYTDVTGVYTTDPRVVKDAYKLDEISYDEMLELANLGAGVLHPRAVEFAKNHNVVLEVRSSMEQENGTIVKGECNMEQQSIVKGIAFEDNITRVTIKGLEQGSLSTVFSTLAAAHINVDIIIQSITNEGTVHLSFSIHSNDLRETLEVLEQNQEALHYEAVEYENHLAKVSIVGSGMVSNPGVAANMFTTLKEEDIHIKMVSTSEIKVSVVIDRLHLVTGVEALHQSFMAKIEPFVQMS | not soluble
MGSDKIHHHHHHMEMRFFVLGAGSWGTVFAQMLHENGEEVILWARRKEIVDLINVSHTSPYVEESKITVRATNDLEEIKKEDILVIAIPVQYIREHLLRLPVKPSMVLNLSKGIEIKTGKRVSEIVEEILGCPYAVLSGPSHAEEVAKKLPTAVTLAGENSKELQKRISTEYFRVYTCEDVVGVEIAGALKNVIAIAAGILDGFGGWDNAKAALETRGIYEIARFGMFFGADQKTFMGLAGIGDLMVTCNSRYSRNRRFGELIARGFNPLKLLESSNQVVEGAFTVKAVMKIAKENKIDMPISEEVYRVVYEGKPPLQSMRDLMRRSLKDEFWASVVDSSL | not soluble
